Measured values reported in the supplement of paper PMC10724198.
± gives the standard deviation of the averaged measurements.

Each sequence was assayed on Saccharomyces cerevisiae (assay: protein stability index of tFT-peptide fusion (C-terminal peptide) (PSI (0-1 scale)); higher = more stable (slower turnover)). Conditions: genetic background: wild type; temperature: 30 C.
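Further: PSI is a weighted mean of sequencing reads over stability bins, variants kept only with over 10 reads, mCherry proximal and sfGFP distal, peptide attached via GGGS linker.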

Point of comparison: DARTLTECTCRG, protein stability index 0.648 ± 0.072. Against it:
- PRLPRRTTTIHG — within error, 0.71 ± 0.035
- PPLPPPQDPRLP — within error, 0.7 ± 0.097
- PKWSVTPVAANL — within error, 0.695 ± 0.048
- LPPPPLTLPPPP — within error, 0.694 ± 0.02
- GGWRGWAGENTR — within error, 0.699 ± 0.035
- YQFGFLPAFPAC — within error, 0.7 ± 0.013
- PTLSPPSPPPPA — within error, 0.665 ± 0.035
- QLPSDENSPANR — within error, 0.615 ± 0.019
- NGREHHLESSYN — within error, 0.654 ± 0.038
- PPPPPAPPLSLP — within error, 0.61 ± 0.01
- LLLALPSRPPPS — within error, 0.666 ± 0.13
- KRQKENRKNKKI — within error, 0.704 ± 0.019
- LPPVQARDPNWQ — within error, 0.6367 ± 0.0014
- LLDVFFPRFFCH — within error, 0.611 ± 0.078
- FAPRRDPMQVQY — within error, 0.6744 ± 0.0032
- PSPPLPPLPPSP — within error, 0.575 ± 0.053
- YGPRNRNPPNAG — within error, 0.688 ± 0.099
- PHPPRPPRAPPP — within error, 0.634 ± 0.024
- CSSACPPPPPAT — within error, 0.733 ± 0.014
- GASGRKPGCDRL — within error, 0.67 ± 0.062
- FGGGGGGGLLWC — within error, 0.739 ± 0.071
- ASGLVVDYTLIA — within error, 0.671 ± 0.025
- GCRGVWGWVGRG — within error, 0.74 ± 0.084
- RACLVWKSLGWV — within error, 0.605 ± 0.084
- RRLGCDFDTYKK — within error, 0.718 ± 0.043
- ITVWVLSDGIGV — lower, 0.5619 ± 0.002
- RQFRVVGCVCQP — within error, 0.686 ± 0.037
- ALCQEFAALEPR — within error, 0.726 ± 0.051
- NSPKTKKTNFKE — within error, 0.665 ± 0.017
- EFFSDLLEMIRL — within error, 0.725 ± 0.033
- PPAHIFHPPPAR — within error, 0.699 ± 0.081
- PCGLRLAFRLSL — within error, 0.619 ± 0.038
- RPTSTHQPASPS — within error, 0.684 ± 0.025
- PSPYFPVPLLPS — within error, 0.701 ± 0.028
- VRTSGRCCPTGP — within error, 0.641 ± 0.036
- GGGGAAGWGAVG — within error, 0.688 ± 0.015
- GFTGWGRRGLGG — within error, 0.716 ± 0.076
- LGVGGLRSRGAG — within error, 0.74 ± 0.2
- LVGLCSVFPSLV — within error, 0.716 ± 0.008
- PPLGPRARPPPR — within error, 0.734 ± 0.024
- STLYLKRKKIKK — within error, 0.696 ± 0.033
- PALPTPILSSPP — within error, 0.709 ± 0.012
- LLSLSGVLLVPP — within error, 0.656 ± 0.013
- SAELGHTNLCRS — within error, 0.6781 ± 0.0041
- RPPGLIDSTIQP — within error, 0.602 ± 0.034
- AVVRVSLPSTVV — within error, 0.667 ± 0.059
- PPPTPPRPPPLP — within error, 0.7059 ± 0.0022
- GVGFGCGGVWME — within error, 0.731 ± 0.012
- TWPGRAGGRGAT — within error, 0.721 ± 0.1
- CFGFVRSLGWWG — within error, 0.6486 ± 0.0027
- PPSNSFHSSIPY — within error, 0.678 ± 0.02
- PVFTLLPTCYCA — within error, 0.6073 ± 0.0025
- PRLSPPRSPSPP — within error, 0.665 ± 0.0091
- GGGVTRMQQRNG — within error, 0.6774 ± 0.002
- PVSVCADRPPAP — within error, 0.715 ± 0.063
- ALVAPAYYWGDV — within error, 0.745 ± 0.059
- LCLRPVISLPHL — within error, 0.716 ± 0.075
- SLSERPKFSIYV — within error, 0.656 ± 0.049
- LPDPPLSPPPVR — within error, 0.675 ± 0.016
- RSRHRRQDGKKT — within error, 0.64 ± 0.029
- SSSVQSIPLPSA — within error, 0.71 ± 0.043
- GRLIRYGSLPSP — within error, 0.729 ± 0.032
- SSGASRWSRSKF — within error, 0.762 ± 0.074
- SRRGIRSSSAAR — within error, 0.714 ± 0.065
- VTLGLSMVQWTY — lower, 0.5702 ± 0.0025
- RPHPQRANAPGH — within error, 0.69373 ± 9.2e-06
- LLPPPLPPLHSS — within error, 0.6828 ± 0.0054
- GERGAYVVGVRW — higher, 0.782 ± 0.019
- APILLFIEPLPP — lower, 0.5631 ± 0.0037
- LGTGRGAEGVIG — higher, 0.791 ± 0.071
- HPCKKEKLYHLK — within error, 0.594 ± 0.091
- PAPPPPPPGTAA — within error, 0.641 ± 0.061
- SPSTPPPPSPPV — within error, 0.647 ± 0.017
- PSAFQCQWKTSA — within error, 0.6383 ± 0.0014
- STFQVHSLPISP — within error, 0.702 ± 0.031
- IPRGTTTFLLEV — within error, 0.638 ± 0.041
- TMLIGTAQAVNN — within error, 0.604 ± 0.026
- CIVSARCWRSPY — within error, 0.609 ± 0.0072
- FPFFLPMASLFC — within error, 0.559 ± 0.018
- EVCLTLTTADGH — within error, 0.68826 ± 0.00011
- GWTQFVLHSMFG — within error, 0.72 ± 0.088
- PRQAPPSLPSPP — within error, 0.697 ± 0.076
- ARADIQIACIIE — within error, 0.6418 ± 0.00089
- LPPPPPPPPPSP — higher, 0.82377 ± 0.00068
- RKSPRDTGLQRA — within error, 0.706 ± 0.19
- HLPPFLRPPFPL — within error, 0.686 ± 0.017
- PTQFSSAADLSA — within error, 0.637 ± 0.062
- RLHPPRPLTPPL — within error, 0.683 ± 0.0087
- ILHCVCFGLFHF — within error, 0.614 ± 0.014
- SPLAPLPPPPLT — higher, 0.884 ± 0.1
- PPTLVPPFPTKV — within error, 0.742 ± 0.064
- PLPPSHPPTGPP — within error, 0.661 ± 0.012
- RLGRSEVREYAW — within error, 0.716 ± 0.024
- ALTGYYNQYRYE — within error, 0.745 ± 0.025
- GVLSYCGFVTFG — within error, 0.603 ± 0.02
- PVPLRPLSPPPP — within error, 0.68 ± 0.0099
- PVLGRTLAFRSL — within error, 0.659 ± 0.057
- RLKKKKKEIKRR — within error, 0.721 ± 0.011
- VWIGMSLSSLVM — lower, 0.512 ± 0.011
- PPPCPPPPLSRP — within error, 0.666 ± 0.058
